Test results: patent US8541373B2, “BChE albumin fusions for the treatment of cocaine abuse” (priority 2009, dated 2013)

System: cocaine
Experiment: Plasma cocaine, benzoylecgonine and ecgonine methyl ester (LC-MS) and cocaine PK after IV cocaine post-AlbuBChE
Type: in vivo, cynomolgus monkeys
Details: for Ecgonine methyl ester plasma concentration (mean) / Mean benzoylecgonine plasma concentration / Mean cocaine plasma concentration / Mean benzoylecgonine AUC(0-t) / Mean cocaine AUC % Extrap / Mean cocaine AUC(0-t) / Mean cocaine AUC(0-∞) / Mean cocaine C0 / Mean cocaine CI / Mean cocaine Vss / Mean cocaine t½: 5 mg/kg IM
Protocol: Blood was placed into K2EDTA blood collection tubes with esterase inhibitor diisopropylfluorophosphate (DFP). Tubes were inverted several times and placed on wet ice upon collection. Samples were centrifuged at 2-8° C. within 45 minutes of collection. The resultant plasma was recovered and a single 200 μL aliquot of plasma was placed into polypropylene tubes. Plasma samples were frozen over dry ice and stored at −75±15° C.
The following outline describes the LC-MS-based assay employed for the measurement of cocaine in plasma samples. Prior to MS analysis, plasma samples, calibration standards and controls were extracted using supported liquid extraction (SLE-ISOLUTE, Biotage). Twenty-five microliters of samples (25 μL) received 150 μl of 5% Ammonium hydroxide and 25 μl internal standard solution (Cocaine-d3). After mixing and transfer to SLE plate, samples were eluted with methylene chloride and evaporated to dryness. After resuspension in 50 μl of reconstitution solution—5% ACM in 10 mM ammonium acetate in water, 10 μl was injected onto Thermo Hypercarb column at 0.5 ml/min. Mobile phase was biphasic. Mass spectrophotometric detection was performed using Api 4000, APCI positive interface and Multiple Reaction Monitoring (MRM). Plasma concentrations of cocaine, benzoylecgonine and ecgonine methyl ester were determined using this assay.
When the data permits, pharmacokinetic parameter values for cocaine and its metabolites were determined using plasma concentration-times profiles for individual animals at all the study days of cocaine administration. […] Specifically the model for non-compartmental analysis with IV bolus input for cocaine and extravascular input for the metabolites.

[1] = cocaine 1 mg/kg IV 48 hr post-AlbuBChE, 10 min after cocaine
[2] = cocaine 1 mg/kg IV 48 hr post-AlbuBChE, 15 min after cocaine
[3] = cocaine 1 mg/kg IV 48 hr post-AlbuBChE, 20 min after cocaine
[4] = cocaine 1 mg/kg IV 48 hr post-AlbuBChE, 30 min after cocaine
[5] = cocaine 1 mg/kg IV 48 hr post-AlbuBChE, 40 min after cocaine
[6] = cocaine 1 mg/kg IV 48 hr post-AlbuBChE, 60 min after cocaine
[7] = cocaine 1 mg/kg IV 96 hr post-AlbuBChE
[8] = cocaine 1 mg/kg IV 96 hr post-AlbuBChE, 5 min after cocaine
[9] = cocaine 1 mg/kg IV 96 hr post-AlbuBChE, 10 min after cocaine
[10] = cocaine 1 mg/kg IV 96 hr post-AlbuBChE, 15 min after cocaine
[11] = cocaine 1 mg/kg IV 96 hr post-AlbuBChE, 20 min after cocaine
[12] = cocaine 1 mg/kg IV 96 hr post-AlbuBChE, 30 min after cocaine
[13] = cocaine 1 mg/kg IV 96 hr post-AlbuBChE, 40 min after cocaine
[14] = cocaine 1 mg/kg IV 96 hr post-AlbuBChE, 60 min after cocaine
[15] = cocaine 1 mg/kg IV 120 hr post-AlbuBChE
[16] = cocaine 1 mg/kg IV 120 hr post-AlbuBChE, 5 min after cocaine
[17] = cocaine 1 mg/kg IV 120 hr post-AlbuBChE, 10 min after cocaine
[18] = cocaine 1 mg/kg IV 120 hr post-AlbuBChE, 15 min after cocaine
[19] = cocaine 1 mg/kg IV 120 hr post-AlbuBChE, 20 min after cocaine
[20] = cocaine 1 mg/kg IV 120 hr post-AlbuBChE, 30 min after cocaine
[21] = cocaine 1 mg/kg IV 120 hr post-AlbuBChE, 40 min after cocaine
[22] = cocaine 1 mg/kg IV 120 hr post-AlbuBChE, 60 min after cocaine
[23] = cocaine 1 mg/kg IV 240 hr post-AlbuBChE
[24] = cocaine 1 mg/kg IV 240 hr post-AlbuBChE, 5 min after cocaine
[25] = cocaine 1 mg/kg IV 240 hr post-AlbuBChE, 10 min after cocaine
[26] = cocaine 1 mg/kg IV 240 hr post-AlbuBChE, 15 min after cocaine
[27] = cocaine 1 mg/kg IV 240 hr post-AlbuBChE, 20 min after cocaine
[28] = cocaine 1 mg/kg IV 240 hr post-AlbuBChE, 30 min after cocaine
[29] = cocaine 1 mg/kg IV 240 hr post-AlbuBChE, 40 min after cocaine
[30] = cocaine 1 mg/kg IV 240 hr post-AlbuBChE, 60 min after cocaine

AlbuBChE
Ecgonine methyl ester plasma concentration (mean) [1]: 68.9 ng/mL
Mean benzoylecgonine plasma concentration [1]: 21.0 ng/mL
Mean cocaine plasma concentration [1]: 89.9 ng/mL
Ecgonine methyl ester plasma concentration (mean) [2]: 102 ng/mL
Mean benzoylecgonine plasma concentration [2]: 24.4 ng/mL
Mean cocaine plasma concentration [2]: 82.7 ng/mL
Ecgonine methyl ester plasma concentration (mean) [3]: 107 ng/mL
Mean benzoylecgonine plasma concentration [3]: 23.7 ng/mL
Mean cocaine plasma concentration [3]: 49.5 ng/mL
Ecgonine methyl ester plasma concentration (mean) [4]: 108 ng/mL
Mean benzoylecgonine plasma concentration [4]: 25.9 ng/mL
Mean cocaine plasma concentration [4]: 36.7 ng/mL
Ecgonine methyl ester plasma concentration (mean) [5]: 106 ng/mL
Mean benzoylecgonine plasma concentration [5]: 25.5 ng/mL
Mean cocaine plasma concentration [5]: 18.9 ng/mL
Ecgonine methyl ester plasma concentration (mean) [6]: 108 ng/mL
Mean benzoylecgonine plasma concentration [6]: 24.4 ng/mL
Mean cocaine plasma concentration [6]: 5.74 ng/mL
Mean benzoylecgonine AUC(0-t) [7]: 3222 ng·min/mL
Mean cocaine AUC % Extrap [7]: 14.2%
Mean cocaine AUC(0-t) [7]: 6624 ng·min/mL
Mean cocaine AUC(0-∞) [7]: 7729 ng·min/mL
Mean cocaine C0 [7]: 190 ng/mL
Mean cocaine CI [7]: 129 mL/min/kg
Mean cocaine Vss [7]: 4.111 L/kg
Mean cocaine t½ [7]: 21.3 min
Ecgonine methyl ester plasma concentration (mean) [8]: 100 ng/mL
Mean benzoylecgonine plasma concentration [8]: 44.2 ng/mL
Mean cocaine plasma concentration [8]: 176 ng/mL
Ecgonine methyl ester plasma concentration (mean) [9]: 60.9 ng/mL
Mean benzoylecgonine plasma concentration [9]: 43.5 ng/mL
Mean cocaine plasma concentration [9]: 166 ng/mL
Ecgonine methyl ester plasma concentration (mean) [10]: 82.2 ng/mL
Mean benzoylecgonine plasma concentration [10]: 49.7 ng/mL
Mean cocaine plasma concentration [10]: 174 ng/mL
Ecgonine methyl ester plasma concentration (mean) [11]: 104 ng/mL
Mean benzoylecgonine plasma concentration [11]: 51.1 ng/mL
Mean cocaine plasma concentration [11]: 136 ng/mL
Ecgonine methyl ester plasma concentration (mean) [12]: 111 ng/mL
Mean benzoylecgonine plasma concentration [12]: 56.1 ng/mL
Mean cocaine plasma concentration [12]: 99.0 ng/mL
Ecgonine methyl ester plasma concentration (mean) [13]: 126 ng/mL
Mean benzoylecgonine plasma concentration [13]: 57.7 ng/mL
Mean cocaine plasma concentration [13]: 80.6 ng/mL
Ecgonine methyl ester plasma concentration (mean) [14]: 127 ng/mL
Mean benzoylecgonine plasma concentration [14]: 60.5 ng/mL
Mean cocaine plasma concentration [14]: 35.2 ng/mL
Mean benzoylecgonine AUC(0-t) [15]: 3624 ng·min/mL
Mean cocaine AUC % Extrap [15]: 14.5%
Mean cocaine AUC(0-t) [15]: 9378 ng·min/mL
Mean cocaine AUC(0-∞) [15]: 11046 ng·min/mL
Mean cocaine C0 [15]: 411 ng/mL
Mean cocaine CI [15]: 93.0 mL/min/kg
Mean cocaine Vss [15]: 2.857 L/kg
Mean cocaine t½ [15]: 22.3 min
Ecgonine methyl ester plasma concentration (mean) [16]: 45.5 ng/mL
Mean benzoylecgonine plasma concentration [16]: 44.6 ng/mL
Mean cocaine plasma concentration [16]: 298 ng/mL
Ecgonine methyl ester plasma concentration (mean) [17]: 46.0 ng/mL
Mean benzoylecgonine plasma concentration [17]: 47.5 ng/mL
Mean cocaine plasma concentration [17]: 217 ng/mL
Ecgonine methyl ester plasma concentration (mean) [18]: 96.5 ng/mL
Mean benzoylecgonine plasma concentration [18]: 50.3 ng/mL
Mean cocaine plasma concentration [18]: 216 ng/mL
Ecgonine methyl ester plasma concentration (mean) [19]: 60.1 ng/mL
Mean benzoylecgonine plasma concentration [19]: 57.3 ng/mL
Mean cocaine plasma concentration [19]: 161 ng/mL
Ecgonine methyl ester plasma concentration (mean) [20]: 79.9 ng/mL
Mean benzoylecgonine plasma concentration [20]: 63.6 ng/mL
Mean cocaine plasma concentration [20]: 139 ng/mL
Ecgonine methyl ester plasma concentration (mean) [21]: 122 ng/mL
Mean benzoylecgonine plasma concentration [21]: 69.5 ng/mL
Mean cocaine plasma concentration [21]: 113 ng/mL
Ecgonine methyl ester plasma concentration (mean) [22]: 187 ng/mL
Mean benzoylecgonine plasma concentration [22]: 69.2 ng/mL
Mean cocaine plasma concentration [22]: 49.5 ng/mL
Mean benzoylecgonine AUC(0-t) [23]: 5088 ng·min/mL
Mean cocaine AUC % Extrap [23]: 29.2%
Mean cocaine AUC(0-t) [23]: 12952 ng·min/mL
Mean cocaine AUC(0-∞) [23]: 18578 ng·min/mL
Mean cocaine C0 [23]: 424 ng/mL
Mean cocaine CI [23]: 55.6 mL/min/kg
Mean cocaine Vss [23]: 2.637 L/kg
Mean cocaine t½ [23]: 33.8 min
Ecgonine methyl ester plasma concentration (mean) [24]: 127 ng/mL
Mean benzoylecgonine plasma concentration [24]: 44.9 ng/mL
Mean cocaine plasma concentration [24]: 346 ng/mL
Ecgonine methyl ester plasma concentration (mean) [25]: 26.1 ng/mL
Mean benzoylecgonine plasma concentration [25]: 56.4 ng/mL
Mean cocaine plasma concentration [25]: 283 ng/mL
Ecgonine methyl ester plasma concentration (mean) [26]: 30.7 ng/mL
Mean benzoylecgonine plasma concentration [26]: 71.9 ng/mL
Mean cocaine plasma concentration [26]: 283 ng/mL
Ecgonine methyl ester plasma concentration (mean) [27]: 35.1 ng/mL
Mean benzoylecgonine plasma concentration [27]: 83.4 ng/mL
Mean cocaine plasma concentration [27]: 226 ng/mL
Ecgonine methyl ester plasma concentration (mean) [28]: 49.6 ng/mL
Mean benzoylecgonine plasma concentration [28]: 88.4 ng/mL
Mean cocaine plasma concentration [28]: 211 ng/mL
Ecgonine methyl ester plasma concentration (mean) [29]: 53.1 ng/mL
Mean benzoylecgonine plasma concentration [29]: 101 ng/mL
Mean cocaine plasma concentration [29]: 161 ng/mL
Ecgonine methyl ester plasma concentration (mean) [30]: 58.0 ng/mL
Mean benzoylecgonine plasma concentration [30]: 108 ng/mL
Mean cocaine plasma concentration [30]: 111 ng/mL
AlbuBChE activity (cocaine concentrations vs Day 1 control) (240 hr post-AlbuBChE administration of 0.2, 1 or 5 mg/kg): not active
